Assay results reported in IntAct's records for PubMed 16956611.

B1: Histone deacetylase 7 (Mus musculus), Q8C2B3 (parent)
chain: MHSPGAGCPALQPDTPGSQPQPMDLRVGQRPTVEPPPEPALLTLQHPQRLHRHLFLAGLHQQQRSAEPMRLSMDPPMPELQGGQQEQELRQLLNKDKSKRSAVASSVVKQKLAEVILKKQQAALERTVHPSSPSIPYRTLEPLDTEGAARSVLSSFLPPVPSLPTEPPEHFPLRKTVSEPNLKLRYKPKKSLERRKNPLLRKESAPPSLRRRPAETLGDSSPSSSSTPASGCSSPNDSEHGPNPALGSEADGDRRTHSTLGPRGPVLGNPHAPLFLHHGLEPEAGGTLPSRLQPILLLDPSVSHAPLWTVPGLGPLPFHFAQPLLTTERLSGSGLHRPLNRTRSEPLPPSATASPLLAPLQPRQDRLKPHVQLIKPAISPPQRPAKPSEKPRLRQIPSAEDLETDGGGVGPMANDGLEHRESGRGPPEGRGSISLQQHQQVPPWEQQHLAGRLSQGSPGDSVLIPLAQVGHRPLSRTQSSPAAPVSLLSPEPTCQTQVLNSSETPATGLVYDSVMLKHQCSCGDNSKHPEHAGRIQSIWSRLQERGLRSQCECLRGRKASLEELQSVHSERHVLLYGTNPLSRLKLDNGKLTGLLAQRTFVMLPCGGVGVDTDTIWNELHSSNAARWAAGSVTDLAFKVASRELKNGFAVVRPPGHHADHSTAMGFCFFNSVAIACRQLQQHGKASKILIVDWDVHHGNGTQQTFYQDPSVLYISLHRHDDGNFFPGSGAVDEVGTGSGEGFNVNVAWAGGLDPPMGDPEYLAAFRIVVMPIAREFAPDLVLVSAGFDAAEGHPAPLGGYHVSAKCFGYMTQQLMNLAGGAVVLALEGGHDLTAICDASEACVAALLGNKVDPLSEESWKQKPNLSAIRSLEAVVRVHRKYWGCMQRLASCPDSWLPRVPGADAEVEAVTALASLSVGILAEDRPSERLVEEEEPMNL

Variants of: B1
Conditions: with 1433e_mouse Ywhae

effect of a mutation on the interaction | Variant
disrupting interaction | S178E;S344E;S479E

Variants of: B1
Conditions: with 1433e_mouse Ywhae
Remark: another data set of the same source

effect of a mutation on the interaction | Variant
disrupting interaction | S178E;S344E;S479E

Variants of: B1
Conditions: with mef2a_mouse Mef2a

effect of a mutation on the interaction | Variant
disrupting interaction strength | S178A;S344A;S479A
